Experiment [1] deals with HpBARI expressed with C-terminal tags (Heligmosomoides polygyrus). Put plainly: SPR.
Experiment [2] addresses H. polygyrus Binds Alarmin Receptor and Inhibits (HpBARI), N-terminal tagged (Heligmosomoides polygyrus). Put plainly: SPR. For orientation: SPR reads the build-up and loss of mass on a sensor chip optically.

B1: Mouse IL-33-TRAP-Fc (a fusion protein of ST2 and IL-1RAcP with an Fc tag) (Fc fusion)
chain: SKSSWGLENEALIVRCPQRGRSTYPVEWYYSDTNESIPTQKRNRIFVSRDRLKFLPARVEDSGIYACVIRSPNLNKTGYLNVTIHKKPPSCNIPDYLMYSTVRGSDKNFKITCPTIDLYNWTAPVQWFKNCKALQEPRFRAHRSYLFIDNVTHDDEGDYTCQFTHAENGTNYIVTATRSFTVEEKGFSMFPVITNPPYNHTMEVEIGKPASIACSACFGKGSHFLADVLWQINKTVVGNFGEARIQEEEGRNESSSNDMDCLTSVLRITGVTEKDLSLEYDCLALNLHGMIRHTIRLRRKQPIDHRSERCDDWGLDTMRQIQVFEDEPARIKCPLFEHFLKYNYSTAHSSGLTLIWYWTRQDRDLEEPINFRLPENRISKEKDVLWFRPTLLNDTGNYTCMLRNTTYCSKVAFPLEVVQKDSCFNSAMRFPVHKMYIEHGIHKITCPNVDGYFPSSVKPSVTWYKGCTEIVDFHNVLPEGMNLSFFIPLVSNNGNYTCVVTYPENGRLFHLTRTVTVKVVGSPKDALPPQIYSPNDRVVYEKEPGEELVIPCKVYFSFIMDSHNEVWWTIDGKKPDDVTVDITINESVSYSSTEDETRTQILSIKKVTPEDLRRNYVCHARNTKGEAEQAAKVKQKVIPPRYTVELACGFGAT
What is called koff is a measure of how fast the partners let go of each other. Regarding B1, the koff was approximately 0.13 s⁻¹ in experiment [1] and approximately 0.04 s⁻¹ in experiment [2].

For the origin of these results see publication PMC7234810 (2020).
